Measurements published in the Human Domainome abundance scans (Beltran et al. 2025).

B1: Histone-lysine N-methyltransferase 2A, residues 1148 to 1194; numbered along this chain, Q03164 (parent)
chain: KGRRSRRCGQCPGCQVPEDCGVCTNCLDKPKFGGRNIKKQCCKMRKC
B2: POU domain, class 3, transcription factor 3, residues 320 to 388; numbered along this chain, P20264 (parent)
chain: DDLEQFAKQFKQRRIKLGFTQADVGLALGTLYGNVFSQTTICRFEALQLSFKNMCKLKPLLNKWLEEAD

Variants of: B1
Experiment: abundance fitness (aPCA) (normalised: wild type 0, dead -1); higher = more abundant; growth selection in yeast, the domain comes from the species named
Settings: Homo sapiens

Abundance fitness, by site and new letter:
V22: C -0.311; G -0.319; P -0.769; F -0.009; D -0.322; W -0.246
Q15: I -0.185; R -0.19; E -0.103; C -0.37; N -0.392; G -0.384; F -0.54
K43: L 0.07; M -0.031; T 0.09; H 0.37; I 0.121; D 0.018; F -0.224; Y 0.046
K1: S -0.232; G -0.676; R -0.285; M -0.337; P -0.662; Y -0.299; T -0.659
K46: F -0.21; C -0.17; G -0.145; N -0.728; E 0.105; Q 0.153; A 0.206; H -0.02; M 0.074; P -0.341
K31: P -0.227; I -0.24; N -0.159; G -0.319; A -0.195; Y -0.253
E18: V -0.093; P -0.495; M -0.22; G -0.469; L -0.213; N -0.161; Y -0.264; A -0.089; S -0.092
I37: T -0.153; H -0.258; Q -0.024; D 0.265; W -0.431; K -0.166; A -0.025
Q10: A 0.031; W -0.381; F -0.284; C -0.459; N -0.436; L -0.322; V -0.296
G34: T -0.316; D -0.236; H -1.07
G13: L -0.445; Y -0.393; M -0.381; F -0.522; I -0.606; A -0.219; E -0.353
R3: A -0.123; H -0.403; V 0.11; F 0.097; W -0.518; G -0.091; K 0.161
G33: N -0.289; L -0.631; Y -0.613; F -1.04; R -0.783; K -0.936
N25: I 0.121; D -0.233; Y -0.148; H -0.374; T -0.325; K -0.633; A -0.078; R -0.599; F -0.377
G21: L -0.626; T -0.894; C -0.805; N -0.767; P -0.857; S -0.542
P30: A -0.187; I -0.256; K -0.669; V -0.594; G -0.213; S -0.303
D19: V -0.901; A -0.797; N -0.624; P -0.935; R -0.775; W -0.861; I -1.24
K39: A -0.074; T -0.187; Y -0.683; I -0.161; N -0.35; W -0.416; D 0.101; C -0.2; S 0.007
G2: Q -0.007; E 0.013; K -0.569; V -0.275; L -0.303; R -0.413; D 0.186
R35: P 0.075; C -0.229; A 0.189; Y -0.036
C8: S -0.626; W -0.863; I -0.585; L -0.648; Q -0.568; V -0.691; M -0.496; Y -0.944; E -0.506
R7: N -0.041; W -0.204; S 0.019; G -0.036; Q -0.188; Y -0.214; A -0.09; P 0.294; I -0.17
K29: T -0.397; S -0.416; Q -0.427; R -0.368; G -0.463; P -0.58; L -0.671; N -0.55; M -0.408; D -0.411; V -0.51
D28: H -1; K -0.752; I -0.628; P -0.937; C -0.868; G -0.461
C42: W -0.821; G -0.909; V -0.813; A -0.952
S5: F 0.163; A -0.19; M -0.236; Q 0.07; L -0.132; T -0.24; G -0.169; N -0.161
R6: I 0.019; V -0.204; C -0.407; Y -0.207; A 0.182; E 0.138; K -0.143; F 0.1
C26: F -0.991; V -1.04; G -0.974; E -0.81
M44: K -0.037; Q 0.037; T -0.283; N -0.253; W -0.151; Y -0.205; G -0.251; I -0.021
R4: H -0.279; L -0.06; T 0.148; D 0.045; K 0.186
L27: A -0.257; V -0.539; N -0.518; R -0.35; F -0.353; P -0.799
C20: M -0.925; Y -0.994; T -0.753; F -1.03; I -0.895; H -0.97; W -0.95
C23: E -0.543; A -0.675; V -0.814; F -1
N36: W -0.595; H -0.076; D 0.134; M -0.274; G -0.091; R -0.672; T -0.731; K -0.63; A -0.339; Q 0.151
G9: Q -0.299; F -0.469; A -0.519; D -0.773; E -0.866; Y -0.42
V16: C -0.468; Y -0.178; M 0.159; N 0.146; P -0.414; G -0.705; E -0.522; K 0.103; D -0.783
C41: M 0.127; I 0.048; H 0.098; L -0.241; F -0.095; R -0.014; V 0.094; Y -0.322
F32: C -0.286; L -0.327
K38: E -0.166; L 0.143; P -0.29; G -0.35; D -0.111; I 0.275; W -0.245
Q40: P -0.512; A -0.317; K -0.249; D -0.03; T -0.234; R -0.229
C11: E -0.799; V -0.371; P -0.693; K -0.964; M -0.784; Y -0.827; S -0.55; A -0.696
P12: H -0.579; V -0.712; L -0.106; I -0.31; F -0.63; K -0.75; Y -0.063; Q 0.016; S -0.676
T24: Q -0.067; R -0.611; N -0.521; H -0.069
R45: W -0.662; M -0.308; L -0.527
C14: Y -0.554; L -0.916; G -0.559; R -0.784; V -0.7; W -0.727; Q -0.183; F -0.913
P17: L -0.06; T 0.161; D -0.615; S 0.026; F -0.123; W -0.215; A -0.058; C -0.367; M -0.241
C47: P -0.789; R -0.925; Y -0.967; D -0.347

Variants of: B2
Experiment: as above
Settings: Homo sapiens

Abundance fitness, by site and new letter:
D69: E -0.183; S -0.573; T -0.314; L -0.436; P -0.128
A68: L -0.705; Y -0.176; S -0.082; H -0.392; R -0.248; M 0.303; G -0.62; N -0.163; Q -0.587
